Experimental findings from US20230074615A1 are described below.

As usually defined, the Kd is the constant that tells how readily two partners part at equilibrium. Low readings indicate tighter binding, high ones weaker binding. As a reminder, the koff is a measure of how fast the partners let go of each other. Read a high koff as a short-lived complex. For orientation: kon means a measure of how fast the partners come together. Broadly, the IC50 is the concentration needed to halve the response being measured.

Residue numbers refer to the chain shown, from its start.

Assay [1] has as its target catalytic domain of human MMP-9 (cdMMP-9) (human) (UniProt P14780). The experiment in a line: biolayer interferometry, biotinylated protease on streptavidin sensor, Fab in solution.
Chain of UniProt P14780 (P14780 other isoform, or with tags, fused parts or gaps limits assumed): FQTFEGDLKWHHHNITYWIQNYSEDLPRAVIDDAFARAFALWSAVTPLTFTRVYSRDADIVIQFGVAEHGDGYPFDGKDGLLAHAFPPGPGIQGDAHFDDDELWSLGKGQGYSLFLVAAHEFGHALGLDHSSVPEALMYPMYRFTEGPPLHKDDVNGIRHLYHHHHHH
The target is the same in assay [2]. The experiment in a line: biolayer interferometry, biotinylated cdMMP-9 on streptavidin biosensors, Fab in solution.
For assay [3] the target is unchanged. Nature of the assay: FRET peptide substrate inhibition assay, K1=IC50/(S/Km+1).
Assay [4] shares this target. The experiment in a line: inhibition of cdMMP-9 proteolytic activity, FRET peptide substrate.
Assay [5] shares this target. The experiment in a line: cell-based or functional assay.
The target is the same in assay [6].
For assay [7] the target is unchanged. The experiment in a line: biolayer interferometry, IgG on protein A sensor, protease in solution.

B1: anti-MMP9 Fab H25 (Fab, V domains shown)
VH: EVQLVESGGGLVQPGGSLRLSCAASGFNIYSSSMHWVRQAPGKGLEWVASIYSYYGYTYYADSVKGRFTISADTSKNTAYLQMNSLRAEDTAVYYCARCKLYTSYMIPVGSDSVNRCMSSYGMDYWGQGTLVTVSS
VL: DIQMTQSPSSLSASVGDRVTITCRASQSVSSAVAWYQQKPGKAPKLLIYSASSLYSGVPSRFSGSRSGTDFTLTISSLQPEDFATYYCQQGGGASLITFGQGTKVEIKR
With B1, in assay [1], the Kd was 450 nM. In assay [2], the koff was 0.031 s⁻¹ and the association rate constant (kon) came out at 69000 M⁻¹ s⁻¹. This molecule also had a Ki in assay [3] of 290 nM. This molecule also showed an IC50 in assay [4] of 520 nM.

B2: anti-MMP9 Fab L13 (Fab, V domains shown)
VH: EVQLVESGGGLVQPGGSLRLSCAASGFNISSSYIHWVRQAPGKGLEWVASISSSSGYTSYADSVKGRFTISADTSKNTAYLQMNSLRAEDTAVYYCARKYMVFGTRMGWVEHTDFAGQGYYAMDYWGQGTLVTVSS
VL: DIQMTQSPSSLSASVGDRVTITCRASQSVSSAVAWYQQKPGKAPKLLIYSASSLYSGVPSRFSGSRSGTDFTLTISSLQPEDFATYYCQQYAALITFGQGTKVEIKR
Consider B2, for which the degradation of type I collagen by cdMMP-9 (SDS-PAGE) in assay [5] was found to be 4%. Also, in assay [1], the equilibrium dissociation constant (Kd) came out at 120 nM. In assay [2], the koff came to 0.0044 s⁻¹ and the kon turned out to be 83000 M⁻¹ s⁻¹. In addition, the Ki in assay [3] came out at 150 nM. Besides, in assay [6], the Km of cdMMP-9 on FRET peptide substrate at 63 nM Fab L13 (without Fab: 1.3) was 3.3 µM, the Km of cdMMP-9 on FRET peptide substrate at 125 nM Fab L13 (without Fab: 1.3) is 4.6 µM, the Km of cdMMP-9 on FRET peptide substrate at 250 nM Fab L13 (without Fab: 1.3) turned out to be 5.1 µM and the Vmax of cdMMP-9 on FRET peptide substrate at 63 nM Fab L13 (without Fab: 1.3) was 0.7 ΔRFU/s. In addition, in assay [6], the Vmax of cdMMP-9 on FRET peptide substrate at 125 nM Fab L13 (without Fab: 1.3) was 0.7 ΔRFU/s and the Vmax of cdMMP-9 on FRET peptide substrate at 250 nM Fab L13 (without Fab: 1.3) is 0.6 ΔRFU/s. The molecule further returned a half-inhibitory concentration (IC50) in assay [4] of 260 nM.

B3: anti-MMP9 IgG H3 (antibody, V domains shown)
VH: EVQLVESGGGLVQPGGSLRLSCAASGFNIYSSSMHWVRQAPGKGLEWVAYIYSSYGYTYYADSVKGRFTISADTSKNTAYLQMNSLRAEDTAVYYCARRFEPGLLKRNKRWISYTLCEAGYGMDYWGQGTLVTVSS
VL: B2 VL with Y91A, A92S, A93H
Molecule B3 showed a Kd in assay [7] of 71 nM. For the same molecule, in assay [3], the Ki worked out at 51 nM. In addition, the IC50 in assay [4] is 92 nM.

B4: anti-MMP9 Fab H3 (Fab, V domains shown)
VH: B3 VH
VL: B2 VL with Y91A, A92S, A93H
For the molecule B4, the Kd in assay [1] turned out to be 98 nM. In assay [2], the dissociation rate constant (koff) was found to be 0.0048 s⁻¹ and the kon was found to be 49000 M⁻¹ s⁻¹. In assay [3], this molecule registered a Ki of 66 nM.

B5: anti-MMP9 IgG L13 (antibody, V domains shown)
VH: B2 VH
VL: B2 VL
With B5, the Kd in assay [7] was 53 nM. This molecule returned a Ki in assay [3] of 110 nM. Also, the IC50 in assay [4] was 200 nM.
